Read-outs that look alike come from different tables or passages of the source.
B1: human Hsp90α_293–699 (wild type Hsp90α middle/C-terminal domain) (domain or fragment)
chain: not shown
B2: human Hsp90α_293–714_W320A mutant (domain or fragment)
chain: not shown

Tests used:
crystal structure [1] = molecular target: the molecule itself; assay: crystal structure
crystal structure [2] = molecular target: the molecule itself; assay: crystal structure; remark: listed apart in the source

| Protein | stoichiometry N (crystal structure [1]) | stoichiometry N (crystal structure [2]) |
| --- | --- | --- |
| B1 | 6 |  |
| B2 |  | 2 |
